Experimental data: publication PMC6764022 (ACS Nano, 2019)
Bridges are numbered along the chain shown (N, C = ends). Roman numbers before positions name the chains, in order. Where no end group is shown, it is not given here. [ ]: non-standard residue; d: D form. Lys(N3) = [N-]=[N+]=NCCCC[C@H](N)C(=O)O

Legend:
[1] = Sedimentation equilibrium analytical ultracentrifugation (AUC); assay type: physicochemical; conditions: PBS, 20 °C; for Oligomeric state (Table S3), reduced / MWAUC (Table S3), reduced: 10 fold excess of TCEP; for Oligomeric state (Table S3), reduced / MWAUC (Table S3), reduced / oligomeric state by AUC, in words / Oligomeric state (Table S3): 55 μM; for MWAUC (Table S3), reduced: 280 nm (235 nm for the KE peptides); for MWAUC (Table S3): 55 μM each, 44–60 krpm, single ideal species, 280 nm (235 nm for CC-Di-KE), performed once, 99% confidence limits in separate column; for Oligomeric state (Table S3): single run
ssDNA tags = assay: CD test of interaction of peptides with ssDNA tags; assay type: binding; conditions: CD spectra (Figure S6a,b)
Description: Peptide modelling. Parametric models for all six combinations of CC-Di-EK and CC-Di-KE as hetero and homodimeric parallel and antiparallel coiled coils were generated using ISAMBARD (https://github.com/woolfson -group/isambard).1 These were optimized for BUDE Interaction Energy in ISAMBARD using a genetic algorithm which generated 30,000 models per combination over 3 0 generations with 1,000 models in each. To ensure that we generated useful models, we restricted geometric parameters to values consistent with coiled -coil dimers. For both the parallel and antiparallel […]
z shift = 0 ± 5 Å. Optimizations were repeated three times for each combination.
Peptide purification. […]
(§1) Exceptions were CC-Di-EK-Z and Z-CC-Di-KE, the masses of which were confirmed by infusing sample from an Advion Nanomate Triverser (Nanospray source) at 1.4 kV into a Waters Synapt G2S IMS Q -TOF mass spectrometer. Peptide purity was determined to be >95% using a JACSO HPLC system set up with an analytical reverse phase Phenomenex Kinete x C18 column (5  µM particle size; 100 Å pore size; 100 x 4.6 mm) running linear gradients of buffer B vs. buffer A.
(§2) Peptide Concentration determinations. Peptide concentrations were determined in H 2O by UV-vis absorption at 280 nm on a Nanodrop 2000 (Thermo Scientific) using the following extinction coefficients: […]

[2] = CD spectra and thermal unfolding; assay type: physicochemical; conditions: 5 °C, 50 μM, neutral pH (PBS pH 7.4)
Method: Figure 1 Biophysical characterization of the coiled-coil heterodimer formed between charge-neutral peptides CC-Di-EK and CC-Di-KE. (a) CD spectra recorded at 5 °C and (b) thermal unfolding (filled symbols, solid line) and refolding (open symbols, dashed line) profiles, monitored through the CD signal at 222 nm, of the individual peptides CC-Di-EK (red, circles) and CC-Di-KE (blue, squares) and of an equimolar mixture of CC-Di-EK:KE (purple, triangles). The average of the spectra of the individual peptides is shown in black (no symbols). […] Representative data from a minimum of three replicates are shown. Conditions: each peptide 50 μM in PBS (pH 7.4), 1 mm path length quartz cuvette. […]
as §1, §2

[3] = target: the molecule itself; assay: AUC; sedimentation equilibrium of the disulfide-linked heterodimers, 55 µM in PBS, 20 °C, 24-39 krpm in 3 krpm steps (colour key of Figure S3 o, p), fits to a single ideal species
[4] = target: the molecule itself; assay: counting of free and bound DNA origami nanostructures in electron micrographs (TEM); peptides displayed on DNA origamis A and B through oligonucleotide tags; gel-purified An and Bn mixed, total monomer concentrations 0.25-2.4 nM; background of random coincidences subtracted; Kd from the slope of a linear fit through the origin; additional systematic error of approximately 20%
[5] = target: T1, B1: DNA origami B decorated with one β-CC-Di-KE (azidonorleucine (Z) at the N-terminus, joined to oligonucleotide tag β, which is hybridised to a handle of DNA origami B); assay: as above; conditions: both partners purified
T1 chain: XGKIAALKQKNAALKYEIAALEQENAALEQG

CC-Di-KE = target: T2, CC-Di-KE (N-terminal acetylation (methods, said of the peptides in general)); assay: circular dichroism thermal unfolding, concentration dependence of TM; Kd for heterodimerization estimated from the concentration dependence of the TM of free peptides in solution; conditions: both partners purified
T2 chain: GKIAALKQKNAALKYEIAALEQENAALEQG

[6] = target: the molecule itself; assay: AUC; sedimentation equilibrium, 55 µM of each peptide in PBS pH 7.4, 20 °C, 44-60 krpm, fits to a single ideal species
[7] = target: the molecule itself; assay: AUC; sedimentation equilibrium, 55 µM of each peptide in PBS, 20 °C, with TCEP reducing agent (10-fold excess; for the pair 5-fold relative to total peptide), fits to a single ideal species

Ac-CGG EIAALEQ ENAALEQ KIAALKW KNAALKQ G-NH2 (Ac-CGGEIAALEQENAALEQKIAALKWKNAALKQG-NH2) [C-CC-Di-EK, N-terminally Cys-labelled CC-Di-EK]
Oligomeric state (Table S3), reduced [1]: 1.96 x monomer | MWAUC (Table S3), reduced [1]: 6683 Da | oligomeric state by AUC, in words [1]: exists as a dimer in solution even under reducing conditions

Ac-CGG KIAALKQ KNAALKY EIAALEQ ENAALEQ G-NH2 (Ac-CGGKIAALKQKNAALKYEIAALEQENAALEQG-NH2) [C-CC-Di-KE, CC-Di-KE with N-terminal Cys]
Oligomeric state (Table S3), reduced [1]: 0.92 x monomer | MWAUC (Table S3), reduced [1]: 3126 Da

Ac-G EIAALEQ EIAALEQ KNAALKW KIAALKQ G-NH2 (Ac-GEIAALEQEIAALEQKNAALKWKIAALKQG-NH2) [CC-Di-EN4, 4-heptad coiled-coil peptide withone asparagine]
MWAUC (Table S3) [1]: 6079 Da | Oligomeric state (Table S3) [1]: 1.87 x monomer

Ac-G EIAALEQ ENAALEQ KIAALKW KNAALKQ G-NH2 (Ac-GEIAALEQENAALEQKIAALKWKNAALKQG-NH2) [CC-Di-EK, charge-neutral coiled-coil peptide, four heptads, asparagines at two a sites]
MWAUC (Table S3) [1]: 3274 Da | Oligomeric state (Table S3) [1]: 1.00 x monomer | oligomeric state by AUC, in words [1]: monomers | interaction with ssDNA tags (ssDNA tags): no interaction | folding state by CD [2]: either largely or fully unfolded

Ac-G EIAALEQ ENAALEQ KIAALKW KNAALKQ GC-NH2 (Ac-GEIAALEQENAALEQKIAALKWKNAALKQGC-NH2) [CC-Di-EK-C, CC-Di-EK with C-terminal Cys]
Oligomeric state (Table S3), reduced [1]: 1.04 x monomer | MWAUC (Table S3), reduced [1]: 3474 Da

Ac-G EIAALEQ ENAALEQ KIAALKW KNAALKQ GC-NH2 | Ac-G KIAALKQ KNAALKY EIAALEQ ENAALEQ GC-NH2 (disulfide) [CC-Di-EK-C | CC-Di-KE-C, obligate heterodimer linked by disulfide via both C-termini]
Oligomeric state (Table S3), disulfide-linked heterodimer ([1]; 24–39 krpm (Figure S3 o, p)): 1.00 x obligate dimer | MWAUC (Table S3), disulfide-linked heterodimer ([1]; 24–39 krpm (Figure S3 o, p), 280 nm): 6695 Da

Ac-G EIAALEQ KNAALKW KIAALKQ G-NH2 (Ac-GEIAALEQKNAALKWKIAALKQG-NH2) [CC-Di-EN3, 3-heptad coiled-coil peptide]
MWAUC (Table S3) [1]: 2369 Da | Oligomeric state (Table S3) [1]: 0.95 x monomer

Ac-G KIAALKQ KNAALKY EIAALEQ ENAALEQ G-NH2 (Ac-GKIAALKQKNAALKYEIAALEQENAALEQG-NH2) [CC-Di-KE, charge-neutral coiled-coil peptide, partner of CC-Di-EK]
MWAUC (Table S3) [1]: 3096 Da | Oligomeric state (Table S3) [1]: 0.96 x monomer | oligomeric state by AUC, in words [1]: monomers | interaction with ssDNA tags (ssDNA tags): no interaction | folding state by CD [2]: either largely or fully unfolded

Ac-G KIAALKQ KNAALKY EIAALEQ ENAALEQ GC-NH2 (Ac-GKIAALKQKNAALKYEIAALEQENAALEQGC-NH2) [CC-Di-KE-C, CC-Di-KE with C-terminal Cys]
Oligomeric state (Table S3), reduced [1]: 0.92 x monomer | MWAUC (Table S3), reduced [1]: 3062 Da

Ac-G LEQ EIAALEQ KNAALKW KIAALKQ G-NH2 [CC-Di-EN3.5, 3.5-heptad coiled-coil peptide]
MWAUC (Table S3) [1]: 2982 Da | Oligomeric state (Table S3) [1]: 1.04 x monomer

B1: CC-Di-EK-C disulfide-linked to C-CC-Di-KE (opposite ends) (complex)
peptide 1: Ac-GEIAALEQENAALEQKIAALKWKNAALKQGC-NH2
peptide 2: Ac-CGGKIAALKQKNAALKYEIAALEQENAALEQG-NH2
modifications: disulfide I:31-II:1
stoichiometry N [3]: 2.6 x obligate dimer

B2: B3: DNA origami B decorated with three β-CC-Di-KE (other)
chain: [Lys(N3)]GKIAALKQKNAALKYEIAALEQENAALEQG-NH2
modifications: also: tag β hybridised to handle of DNA origami B, three copies per origami
Kd [4]: 20 ± 3 nM

B3: A1: DNA origami A decorated with one CC-Di-EK-α (other)
chain: GEIAALEQENAALEQKIAALKWKNAALKQG[Lys(N3)]-NH2
modifications: also: tag α hybridised to handle of DNA origami A, one copy per origami
Kd [5]: 130 ± 20 nM

B4: CC-Di-EK (peptide)
chain: Ac-GEIAALEQENAALEQKIAALKWKNAALKQG-NH2
Kd (CC-Di-KE): 102 ± 26 nM

B5: CC-Di-EN4 (peptide)
peptide: Ac-GEIAALEQEIAALEQKNAALKWKIAALKQG-NH2
stoichiometry N [6]: 1.87 x monomer

B6: C-CC-Di-EK (peptide)
peptide: Ac-CGGEIAALEQENAALEQKIAALKWKNAALKQG-NH2
stoichiometry N [7]: 1.96 x monomer
